According to US20240141061A1, “NOVEL ANTIBODY AGAINST CD55 AND USE THEREOF” (SG MEDICAL INC, priority 2021, published 2024):

T1: recombinant human CD55 (R&D Systems 2009-CD/CF) (human, UniProt P08174 35-353)
T1 construct: Bought recombinant protein coated on ELISA plates; also called decay-accelerating factor; DAF
T1 sequence (looked up): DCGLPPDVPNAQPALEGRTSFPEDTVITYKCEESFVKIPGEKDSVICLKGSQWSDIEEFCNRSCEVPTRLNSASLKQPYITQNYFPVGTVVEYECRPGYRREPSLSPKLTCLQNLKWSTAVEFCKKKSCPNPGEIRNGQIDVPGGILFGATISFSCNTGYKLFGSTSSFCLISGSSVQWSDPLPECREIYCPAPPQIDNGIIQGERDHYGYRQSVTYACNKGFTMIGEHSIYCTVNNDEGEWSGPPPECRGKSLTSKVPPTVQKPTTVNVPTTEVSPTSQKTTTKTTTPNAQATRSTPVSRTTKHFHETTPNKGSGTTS

T2: recombinant human CD55 (Homo sapiens, UniProt P08174)
T2 construct: purchased R&D Systems 2009-CD/CF
T2 sequence (P08174 35-353): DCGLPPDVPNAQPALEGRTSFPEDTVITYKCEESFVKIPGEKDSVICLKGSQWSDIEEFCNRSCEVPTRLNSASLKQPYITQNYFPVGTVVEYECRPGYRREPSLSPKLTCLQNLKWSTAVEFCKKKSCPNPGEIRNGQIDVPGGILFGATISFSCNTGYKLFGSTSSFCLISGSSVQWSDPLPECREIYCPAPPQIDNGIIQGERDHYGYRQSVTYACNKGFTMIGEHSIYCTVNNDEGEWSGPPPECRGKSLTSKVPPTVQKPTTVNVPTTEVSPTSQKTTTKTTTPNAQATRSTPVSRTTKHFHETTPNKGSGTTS


How the values were obtained:
[1] = target: T1, recombinant human CD55 (R&D Systems …); assay: indirect ELISA, recombinant human CD55 coated
recombinant human CD55 = target: T2, recombinant human CD55; assay: Indirect ELISA, affinity for CD55; type: binding; conditions: full-length antibody 0.0001-10 nM on CD55 coated at 1 μg/mL
Protocol: The binding ability of the G4-1H monoclonal antibody prepared in Example 2 for CD55 was investigated by indirect ELISA. For the indirect ELISA, recombinant human CD55 (R&D Systems, USA) diluted to 1 μg/mL in 50 μL of PBS was added to a 96-well immunoplate (Corning, USA) and then adsorbed by keeping at 4° C. overnight. After incubation for 1 hour at room temperature in a buffer containing 3% bovine serum albumin (Millipore, USA), followed by washing with a buffer containing 0.5% Tween 20 (Amresco, USA) three times, 50 μL of the serially diluted antibody (0.0001, 0.0003, 0.001, 0.003, 0.01, 0.03, 0.1, 0.3, 1, 3 and 10 nM) was treated per well. After incubation at room temperature for 2 hours for antibody-antigen binding, the antibody-antigen complex was washed three times with a buffer containing 0.5% Tween 20 (Amresco, USA). After treating with 50 μL of anti-human immunoglobulin Fc-HRP antibody (Jackson Immunoresearch, USA) diluted to 1:3,000 per well, followed by incubation at room temperature for 1 hour and washing three times with a buffer containing 0.5% Tween 20 (Amresco, USA), color development was conducted for 10 minutes by adding 50 μL of 3,3′,5,5′-tetramethylbenzidine (TMB) (ThermoFisher Scientific, USA).
The affinity of the antibodies screened in Example 6 for CD55 was investigated by indirect ELISA. The indirect ELISA was conducted in the same manner as in Example 3.
The affinity of the antibodies prepared in Example 8 for CD55 was investigated by indirect ELISA. The indirect ELISA was conducted in the same manner as in Example 3. […]

Molecule	binding result [1]	affinity for CD55 (indirect ELISA, absorbance at 450 nm) (recombinant human CD55)
EP-9B: anti-CD55 antibody screened from G4-1H random mutation library, VL SEQ ID NO 4, VH SEQ ID NO 21 (antibody, V domains shown, EP-9B_VH; G4-1H_VL) VH: EVQLVESGGGLVQPGGSLRLSCAASGFTFSDRGMVWVRQSPGKGLEWVSGISSSGRYTYYAPAVKGRATISRDNSKNTLYLQMNNLRAEDTAVYYCAKNAVAGGWHAAYIDAWGQGTTVTVSS VL: SYELTQPPSVSVSPGQTASITCSGGGGSYGWYQQKPGQSPVTVIYWNDKRPSGIPERFSGSKSGNTATLTISGTQAMDEADYYCGGWDSSTYAIFGGGTKLTVL		affinity higher than that of 4-1H but lower than those of other antibodies
EP-1E: anti-CD55 antibody screened from G4-1H random mutation library, VL SEQ ID NO 18, VH SEQ ID NO 19 (antibody, V domains shown, EP-1E_VH; EP-1E_VL) VH: EVQLVESGGGLVQPGGSLRLSCAASGFTFSDRGMAWVRQAPGKGLEWVSGISSSGRYTYYAPAVKGRATISRDNSKNTLYLQMNSLRAEDTAVYYCAKNAVAGGWHAAYIDAWGQGTTVTVSS VL: SYELTQPPSVSVSPGQTASITCSGGGGSYGWFQQKPGQSPVTVIYWNNKRPSGIPERFSGSKSGNTATLTISGTQAMDEADYYCGGWDSSTYAIFGGGTKLTVL		comparable affinity
10H(L): EP-10H backbone with H100A site replaced with L, VH SEQ ID NO 27, EP-10H light chain (antibody, V domains shown) VH: EVQLAESGGGLVQPGGSLRLSCAASGFTFSDRGMAWVRQAPGKGLEWVSGISSSGRYTYYAPAVKGRATISRDNSKNTLYLQMNSLRAEDTAVYYCAKNALAGGWHAAYIDAWGQGTTVTVSS VL: SYELTQPPSVSVSPGQTASITCSGGGGSYGWYQQKPGQSPVTVIYWNDKRPSGIPERFSGSKSGNTATLTISGTQAMDEADYYCGGWDSSTYAIFGGGTKLTVL		lower affinity than EP-10H
G4-1H: humanized 4-1H anti-CD55 antibody, VL SEQ ID NO 4, VH SEQ ID NO 5 (antibody, V domains shown, G4-1H_VH; G4-1H_VL) VH: EVQLVESGGGLVQPGGSLRLSCAASGFTFSDRGMAWVRQAPGKGLEWVSGISSSGRYTYYAPAVKGRATISRDNSKNTLYLQMNSLRAEDTAVYYCAKNAGAGGWHAAYIDAWGQGTTVTVSS VL: SYELTQPPSVSVSPGQTASITCSGGGGSYGWYQQKPGQSPVTVIYWNDKRPSGIPERFSGSKSGNTATLTISGTQAMDEADYYCGGWDSSTYAIFGGGTKLTVL		lower affinity for CD55 than 4-1H
EP-1F: anti-CD55 antibody screened from G4-1H random mutation library, VL SEQ ID NO 4, VH SEQ ID NO 20 (antibody, V domains shown, EP-1F_VH; G4-1H_VL) VH: EVQLAESGGGLVQPGGSLRLSCAASGFTFSDRGMAWVRQAPGKGLEWVSGISSSGRYTYYAPAVKGRATISRDNSKNTLYLQMNSLRAEDTAVYYCAKNAVAGGWHAAYIDAWGQGTTVTVSS VL: SYELTQPPSVSVSPGQTASITCSGGGGSYGWYQQKPGQSPVTVIYWNDKRPSGIPERFSGSKSGNTATLTISGTQAMDEADYYCGGWDSSTYAIFGGGTKLTVL		comparable affinity
EP-1E (antibody, V domains shown, Tested as full-length IgG) VH: EVQLVESGGGLVQPGGSLRLSCAASGFTFSDRGMAWVRQAPGKGLEWVSGISSSGRYTYYAPAVKGRATISRDNSKNTLYLQMNSLRAEDTAVYYCAKNAVAGGWHAAYIDAWGQGTTVTVSS VL: SYELTQPPSVSVSPGQTASITCSGGGGSYGWFQQKPGQSPVTVIYWNNKRPSGIPERFSGSKSGNTATLTISGTQAMDEADYYCGGWDSSTYAIFGGGTKLTVL	binds	
EP-9B (antibody, V domains shown, Tested as full-length IgG) VH: EVQLVESGGGLVQPGGSLRLSCAASGFTFSDRGMVWVRQSPGKGLEWVSGISSSGRYTYYAPAVKGRATISRDNSKNTLYLQMNNLRAEDTAVYYCAKNAVAGGWHAAYIDAWGQGTTVTVSS VL: SYELTQPPSVSVSPGQTASITCSGGGGSYGWYQQKPGQSPVTVIYWNDKRPSGIPERFSGSKSGNTATLTISGTQAMDEADYYCGGWDSSTYAIFGGGTKLTVL	binds	

Now from value to molecule:

binding result [1]	affinity for CD55 (indirect ELISA, absorbance at 450 nm) (recombinant human CD55)	Molecule
binds		3R-2-1H (antibody, V domains shown, Tested as full-length IgG) VH: EVQLVESGGGLVQPGGSLRLSCVARGFTFSDRGMAWVRQAPGKGLEWVSGISSSGRYTYYAPAVKGRTTISRDNSKNTLYLQMNSLRAEDTAVYYCAKNAVAGGWHAAYIDAWGQGTTVTVSS VL: SYELTQPPSVSVSPGQTASITCSGGGGSYGWYQQKPGQSPVTVIYWNDKRPSGIPERFSGSKSGNTATLTISGTQAMDEADYYCGGWDSSTYAIFGGGTKLTVL
	lower affinity than EP-10H	10H(F): EP-10H backbone with H100A site replaced with F, VH SEQ ID NO 28, EP-10H light chain (antibody, V domains shown) VH: EVQLAESGGGLVQPGGSLRLSCAASGFTFSDRGMAWVRQAPGKGLEWVSGISSSGRYTYYAPAVKGRATISRDNSKNTLYLQMNSLRAEDTAVYYCAKNAFAGGWHAAYIDAWGQGTTVTVSS VL: SYELTQPPSVSVSPGQTASITCSGGGGSYGWYQQKPGQSPVTVIYWNDKRPSGIPERFSGSKSGNTATLTISGTQAMDEADYYCGGWDSSTYAIFGGGTKLTVL
	comparable affinity	3R-2-1H: anti-CD55 antibody screened from G4-1H random mutation library, VL SEQ ID NO 4, VH SEQ ID NO 22 (antibody, V domains shown, 3R-2-1H_VH; G4-1H_VL) VH: EVQLVESGGGLVQPGGSLRLSCVARGFTFSDRGMAWVRQAPGKGLEWVSGISSSGRYTYYAPAVKGRTTISRDNSKNTLYLQMNSLRAEDTAVYYCAKNAVAGGWHAAYIDAWGQGTTVTVSS VL: SYELTQPPSVSVSPGQTASITCSGGGGSYGWYQQKPGQSPVTVIYWNDKRPSGIPERFSGSKSGNTATLTISGTQAMDEADYYCGGWDSSTYAIFGGGTKLTVL
	lower affinity than EP-10H	10H(M): EP-10H backbone with H100A site replaced with M, VH SEQ ID NO 29, EP-10H light chain (antibody, V domains shown) VH: EVQLAESGGGLVQPGGSLRLSCAASGFTFSDRGMAWVRQAPGKGLEWVSGISSSGRYTYYAPAVKGRATISRDNSKNTLYLQMNSLRAEDTAVYYCAKNAMAGGWHAAYIDAWGQGTTVTVSS VL: SYELTQPPSVSVSPGQTASITCSGGGGSYGWYQQKPGQSPVTVIYWNDKRPSGIPERFSGSKSGNTATLTISGTQAMDEADYYCGGWDSSTYAIFGGGTKLTVL
binds		EP-1F (antibody, V domains shown, Tested as full-length IgG) VH: EVQLAESGGGLVQPGGSLRLSCAASGFTFSDRGMAWVRQAPGKGLEWVSGISSSGRYTYYAPAVKGRATISRDNSKNTLYLQMNSLRAEDTAVYYCAKNAVAGGWHAAYIDAWGQGTTVTVSS VL: SYELTQPPSVSVSPGQTASITCSGGGGSYGWYQQKPGQSPVTVIYWNDKRPSGIPERFSGSKSGNTATLTISGTQAMDEADYYCGGWDSSTYAIFGGGTKLTVL
